According to US20130078247A1:

Molecular target: cynomolgus Ang2 (cynomolgus)
Test: competition ELISA: cAng2 binding to cTie2

IC50 (read off the curve): 10 nM
B1: 00050 (VHH)
VHH: EVQLVESGGGLVQPGGSLRLSCAASGFTFDDYALGWFRQAPGKEREGVSCIRCSDGSTYYADSVKGRFTISSDNSKNTVYLQMNSLRPEDTAVYYCAASIVPRSKLEPYEYDAWGQGTLVTVSS
